Assay results published in paper PMC12830800.

Molecular target: Coxsackievirus A6 (CVA6) strain 54203/HeB/CHN/2012 mature virion (coxsackievirus A6 strain 54203/HeB/CHN/2012)

B1: His-tagged human KRM1 ectodomain (residues A23-G373) (domain or fragment)
chain: APSPGLGPECFTANGADYRGTQNWTALQGGKPCLFWNETFQHPYNTLKYPNGEGGLGEHNYCRNPDGDVSPWCYVAEHEDGVYWKYCEIPACQMPGNLGCYKDHGNPPPLTGTSKTSNKLTIQTCISFCRSQRFKFAGMESGYACFCGNNPDYWKYGEAASTECNSVCFGDHTQPCGGDGRIILFDTLVGACGGNYSAMSSVVYSPDFPDTYATGRVCYWTIRVPGASHIHFSFPLFDIRDSADMVELLDGYTHRVLARFHGRSRPPLSFNVSLDFVILYFFSDRINQAQGFAVLYQAVKEELPQERPAVNQTVAEVITEQANLSVSAARSSKVLYVITTSPSHPPQTVPG
share of A-particles among the particles after incubation of virions with KRM1 ectodomain (1:120, 35 min, room temperature; cryo-EM classification); none in the untreated sample: 69.8%
